Key:
[1] = molecular target: T1, RecA (RecAWT) (Bacillus subtilis, UniProt P16971); assay: malachite green phosphate release; kinetic analysis of ATP binding; type: biochemical; conditions: with salmon sperm ssDNA, Mg2+, pH 7.4, 37 C
T1 construct: 6xHis tag kept (text says C-terminal, also written 6xHis-RecA); pET28a, E. coli BL21(DE3); about 38 kDa monomer
T1 sequence (P16971 11-348): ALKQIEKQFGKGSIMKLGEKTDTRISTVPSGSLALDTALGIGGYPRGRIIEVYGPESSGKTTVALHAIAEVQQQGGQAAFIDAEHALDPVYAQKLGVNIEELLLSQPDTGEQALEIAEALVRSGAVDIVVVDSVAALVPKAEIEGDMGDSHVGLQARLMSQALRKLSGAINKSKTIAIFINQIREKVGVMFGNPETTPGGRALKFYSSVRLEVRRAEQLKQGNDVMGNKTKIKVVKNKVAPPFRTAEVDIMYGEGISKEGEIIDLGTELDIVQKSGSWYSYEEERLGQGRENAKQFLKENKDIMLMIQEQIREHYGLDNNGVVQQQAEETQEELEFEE

[2] = molecular target: Bacillus subtilis RecA K70A Walker A mutant, hexa-histidine fusion protein (B. subtilis) (UniProt P16971); assay: mass photometry; protein alone; 2 uL sample added to 18 uL PBS pH 7.4, room temperature; 137 mM salt; poly-L-lysine coated coverslips
[3] = molecular target: Bacillus subtilis RecA K70R Walker A mutant, hexa-histidine fusion protein (B. subtilis) (UniProt P16971); assay: mass photometry; protein mixed with 32 nt ssDNA oligonucleotides and 1 mmol/l ATP, incubated 10 min at 37°C; measured in PBS pH 7.4
[4] = molecular target: Bacillus subtilis RecA K70R Walker A mutant, hexa-histidine fusion protein (B. subtilis) (UniProt P16971); assay: mass photometry; protein alone; 2 uL sample added to 18 uL PBS pH 7.4, room temperature; 137 mM salt; poly-L-lysine coated coverslips
[5] = molecular target: Bacillus subtilis RecA, wild type, hexa-histidine fusion protein (B. subtilis) (UniProt P16971); assay: as above

Molecule: Nc1ncnc2c1ncn2[C@@H]1O[C@H](COP(=O)(O)OP(=O)(O)OP(=O)(O)O)[C@@H](O)[C@H]1O [ATP]
- malachite green phosphate release; kinetic analysis of ATP binding [1]: activity of wild type RecA comparable to that of E. coli RecA

Molecule: Bacillus subtilis RecA K70A Walker A mutant, hexa-histidine fusion protein (from UniProt P16971 11-348) (natural protein)
- stoichiometry N [2]: 2

Molecule: Bacillus subtilis RecA K70R Walker A mutant, hexa-histidine fusion protein (from UniProt P16971 11-348) (natural protein)
- stoichiometry N [3]: 2
- stoichiometry N [4]: 2

Molecule: Bacillus subtilis RecA, wild type, hexa-histidine fusion protein (from UniProt P16971 11-348) (natural protein)
- stoichiometry N [5]: 2

Reference: paper PMC9769622, “ATPase Activity of Bacillus subtilis RecA Affects the Dynamic Formation of RecA Filaments at DNA Double Strand Breaks” (mSphere, 2022)
